# In patent publication US11994512B2, “Single-cell genomic methods to generate ex vivo cell systems that recapitulate in vivo biology with improved fidelity” (Massachusetts Institute of Technology, priority 2018, dated 2024):
# B1: Q33DR2 (protein, UniProt Q33DR2 1-409, looked up)
# chain: MAMRWSCWRRGCSWRPTAVGSPRRERPGCVEPLGTRAASDTRAQIPYFSLMKILMSASPTMHSISQFHQRTPAMCSCRQTQSGEKYSDPFKLGWRDLKGLYEDIRKELHISTRELKDMSEYYFDGKGKAFRPIIVVLMARACNIHHNNAREMQASQRSIALVAEMIHTATLVHDDVIDDASSRRGKHTVNKIWGEKKAVLAGDLILSAASVALARIGNTAVVSMLAQVIEDLVRGEFLQLGSKENENERFAHYLEKTFKKTASLIANSCKAVSVLGCPDPVVHEIAYQYGKNVGIAFQLIDDVLDFTSCSDQMGKPTSADLKLGIATGPVLFACQQFPEMNAMIMRRFSLPGDVDRARQYVLQSDGVQQTTYLAQQYCHKAVREIRKLRPSTERDALIQLSESVLTRDK
# modifications: full-length
# B2: Q3U0B3 (protein, UniProt Q3U0B3 1-260, looked up)
# chain: MTRAGMERWRDRLALVTGASGGIGAAVARALVQQGLKVVGCARTVGNIEELAAECKSAGYPGTLIPYRCDLSNEEDILSMFSAVRSQHSGVDICINNAGMARPDTLLSGSTSGWKDMFNVNVLALSICTREAYQSMKERNIDDGHIININSMCGHRVPPQSVIHFYSATKYAVTALTEGLRQELLEAQTHIRATCISPGLVETQFAFKLHDKDPGEAAATYEHIKCLRPEDVAEAVIYVLSTPPHVQVGDIQMRPTEQVT
# modifications: full-length
# B3: Q07797 (protein, UniProt Q07797 1-577, looked up)
# chain: MALLWLLSVFLLVPGTQGTEDGDMRLVNGASANEGRVEIFYRGRWGTVCDNLWNLLDAHVVCRALGYENATQALGRAAFGPGKGPIMLDEVECTGTESSLASCRSLGWMVSRCGHEKDAGVVCSNDTTGLHILDLSGELSDALGQIFDSQQGCDLFIQVTGQGYEDLSLCAHTLILRTNPEAQALWQVVGSSVIMRVDAECMPVVRDFLRYFYSRRIEVSMSSVKCLHKLASAYGATELQDYCGRLFATLLPQDPTFHTPLDLYAYARATGDSMLEDLCVQFLAWNFEPLTQSESWSAVPTTLIQALLPKSELAVSSELDLLKAVDQWSTETIASHEDIERLVEQVRFPMMLPQELFELQFNLSLYQDHQALFQRKTMQALEFHTVPVEVLAKYKGLNLTEDTYKPRLYTSSTWSSLVMASTWRAQRYEYNRYNQLYTYGYGSVARYNSYQSFQTPQHPSFLFKDKQISWSATYLPTMQSCWNYGFSCTSNELPVLGLTTSSYSNPTIGYENRVLILCGGYSVVDVTSFEGSKAPIPTALDTNSSKTPSLFPCASGAFSSFRVVIRPFYLTNSTDMV
# modifications: full-length
# B4: Q3U9N9 (protein, UniProt Q3U9N9 1-512, looked up)
# chain: MVPSQEEPAAERETNEAQPPGPAPSDDAPLPGPGPSDVSDVAAEKVEVELTRSAGSEPPVPPEGGWGWLVMLAAMWCNGSVFGIQNAYGVLFVSMLDTFKAKDDDNMAFKTAWVGSLSMGMIFFCCPIVSVFTDMFGCRRTAVVGAAVGFIGLMSSSFVSSIEPLYLTYGIIFACGCSFAYQPSLVILGHYFKKRLGLVNGIVTAGSSVFTILLPLLLGNLISSVKLFNTLRILCIFMFVLFLAGFTYRPLVPSTKEKESGGSRSSFFSRRKLSPPKKVFNFALFKETTYAVWAAGIPLALFGYFVPYVHLMNHVKERFQDVNNKEVLFMCIGITSGVGRLLFGRIADYLPGVKKVYLQVLSFFFIGLMSMMIPLCSAFGALIAVCLAMGLFDGCFISIMAPIAFELVGPQDASQAIGFLLGFMSIPMTVGPPIAGLLHDKLGTYDVAFYLAGIPPFVGGVVLCLIPWIHSKKQRKISKNAGGEKMEKMLENQSSLLSGSSGIFKKDSASII
# modifications: full-length
# B5: P98063 (protein, UniProt P98063 1-991, looked up)
# chain: MPGVARPPLPLLSLPLLLLLLLLPRAGRPLDLADYTYDLGEEDAPELLNYKDPCKAAAFLGDIALDEEDLRAFQVQQAAVLRQQTARRPSIKAAGNSSALGGQGTSGQPQRESRGRWRGRPRSRRAATSRPERVWPDGVIPFVIGGNFTGSQRAVFRQAMRHWEKHTCVTFLERTDEDSYIVFTYRPCGCCSYVGRRGGGPQAISIGKNCDKFGIVVHELGHVIGFWHEHTRPDRDRHVSIVRENIQPGQEYNFLKMEVQEVESLGETYDFDSIMHYARNTFSRGIFLDTIVPKYEVNGVKPSIGQRTRLSKGDIAQARKLYKCPACGETLQDSTGNFSSPEYPNGYSAHMHCVWRISVTPGEKIILNFTSMDLYRSRLCWYDYVEVRDGFWRKAPLRGRFCGGKLPEPIVSTDSRLWVEFRSSSNWVGKGFFAVYEAICGGDVKKDNGHIQSPNYPDDYRPSKVCIWRIQVSEGFHVGLTFQSFEIERHDSCAYDYLEVRDGHSESSNLIGRYCGYEKPDDIKSTSSRLWLKFVSDGSINKAGFAVNFFKEVDECSRPNRGGCEQRCLNTLGSYKCSCDPGYELAPDKRRCEAACGGFLTKLNGSITSPGWPKEYPPNKNCIWQLVAPTQYRISLQFDFFETEGNDVCKYDFVEVRSGLTADSKLHGKFCGSEKPEVITSQYNNMRVEFKSDNTVSKKGFKAHFFSDKDECSKDNGGCQQDCVNTFGSYECQCRSGFVLHDNKHDCKEAGCEHKVTSTSGTITSPNWPDKYPSKKECTWAISSTPGHRVKLTFVEMDIESQPECAYDHLEVFDGRDAKAPVLGRFCGSKKPEPVLATGNRMFLRFYSDNSVQRKGFQASHSTECGGQVRADVKTKDLYSHAQFGDNNYPGGVDCEWVIVAEEGYGVELVFQTFEVEEETDCGYDYIELFDGYDSTAPRLGRYCGSGPPEEVYSAGDSVLVKFHSDDTISKKGFHLRYTSTKFQDTLHSRK
# modifications: full-length
# B6: Q3UA16 (protein, UniProt Q3UA16 1-226, looked up)
# chain: MGEDELALLNQSINEFGDKFRNRLDDNHSQVLGLRDAFKDSMKAFSEKMSLKLKEEERMTEMILEYKNQLCKQNKLIQEKKENVLKMIAEVKGKEQESEELTAKIQELKEEYARKRETISTANKANEERLKGLQKSADLYRDYLGLEIRKIHGNKLQFIFTSIDPKNPESPYMFSMSINEAKEYEVYDSSPHLECLAEFQEKVRKTNNFSAFLANIRKAFIAKVHN
# modifications: full-length
# B7: Q08652 (protein, UniProt Q08652 1-134, looked up)
# chain: MTKDQNGTWEMESNENFEGYMKALDIDFATRKIAVRLTQTKIITQDGDNFKTKTNSTFRNYDLDFTVGVEFDEHTKGLDGRHVKTLVTWEGNTLVCVQKGEKENRGWKQWVEGDKLYLELTCGDQVCRQVFKKK
# modifications: full-length
# B8: Q03157 (protein, UniProt Q03157 1-654, looked up)
# chain: MGPTSPAARGQGRRWRPPPLPLLLPLSLLLLRAQLAVGNLAVGSPSAAEAPGSAQVAGLCGRLTLHRDLRTGRWEPDPQRSRRCLLDPQRVLEYCRQMYPELHIARVEQAAQAIPMERWCGGTRSGRCAHPHHEVVPFHCLPGEFVSEALLVPEGCRFLHQERMDQCESSTRRHQEAQEACSSQGLILHGSGMLLPCGSDRFRGVEYVCCPPPATPNPSGMAAGDPSTRSWPLGGRAEGGEDEEEVESFPQPVDDYFVEPPQAEEEEEEEEERAPPPSSHTPVMVSRVTPTPRPTDGVDVYFGMPGEIGEHEGFLRAKMDLEERRMRQINEVMREWAMADSQSKNLPKADRQALNEHFQSILQTLEEQVSGERQRLVETHATRVIALINDQRRAALEGFLAALQGDPPQAERVLMALRRYLRAEQKEQRHTLRHYQHVAAVDPEKAQQMRFQVQTHLQVIEERMNQSLGLLDQNPHLAQELRPQIQELLLAEHLGPSELDASVPGSSSEDKGSLQPPESKDDPPVTLPKGSTDQESSSSGREKLTPLEQYEQKVNASAPRGFPFHSSDIQRDELAPSGTGVSREALSGLLIMGAGGGSLIVLSLLLLRKKKPYGTISHGVVEVDPMLTLEEQQLRELQRHGYENPTYRFLEERP
# modifications: full-length
# B9: Q00623 (protein, UniProt Q00623 1-264, looked up)
# chain: MKAVVLAVALVFLTGSQAWHVWQQDEPQSQWDKVKDFANVYVDAVKDSGRDYVSQFESSSLGQQLNLNLLENWDTLGSTVSQLQERLGPLTRDFWDNLEKETDWVRQEMNKDLEEVKQKVQPYLDEFQKKWKEDVELYRQKVAPLGAELQESARQKLQELQGRLSPVAEEFRDRMRTHVDSLRTQLAPHSEQMRESLAQRLAELKSNPTLNEYHTRAKTHLKTLGEKARPALEDLRHSLMPMLETLKTQVQSVIDKASETLTAQ
# modifications: full-length
# B10: Q05186 (protein, UniProt Q05186 1-325, looked up)
# chain: MARGGRLGLALGLLLALVLALRAKPTVRKERVVRPDSELGERPPEDNQSFQYDHEAFLGKEDSKTFDQLSPDESKERLGKIVDRIDSDGDGLVTTEELKLWIKRVQKRYIYDNVAKVWKDYDRDKDEKISWEEYKQATYGYYLGNPAEFHDSSDHHTFKKMLPRDERRFKASDLDGDLTATREEFTAFLHPEEFEHMKEIVVLETLEDIDKNGDGFVDQDEYIADMFSHEDNGPEPDWVLSEREQFNDFRDLNKDGKLDKDEIRHWILPQDYDHAQAEARHLVYESDKNKDEMLTKEEILDNWNMFVGSQATNYGEDLTKNHDEL
# modifications: full-length
# System: intracellular proteome of ENR+CD and ENR organoids
# Experiment: LC-MS/MS TMT proteomics of ENR+CD versus ENR organoids
# Type: cell-based, C57BL/6 mice
# Details: for Average logFC / M1-1 Log2 Median Normalized / M1-2 Log2 Median Normalized / M2-1 Log2 Median Normalized / M2-2 Log2 Median Normalized: protein abundance, ENR+CD versus ENR organoids; for Average logFC: aggregate of the four sample pairs; for M1-1 Log2 Median Normalized: replicate M1-1; for M1-1 Log2 Median Normalized / M1-2 Log2 Median Normalized / M2-1 Log2 Median Normalized / M2-2 Log2 Median Normalized: log2 ratio; for M1-2 Log2 Median Normalized: replicate M1-2; for M2-1 Log2 Median Normalized: replicate M2-1; for M2-2 Log2 Median Normalized: replicate M2-2; for change: up = enriched in ENR+CD, down = enriched in ENR, FDR<0.05 and log fold change cut-off
Molecule,Average logFC,M1-1 Log2 Median Normalized,M1-2 Log2 Median Normalized,M2-1 Log2 Median Normalized,M2-2 Log2 Median Normalized,change
B1,−1.389,−1.379,−1.779,−1.2185,−1.389,down
B2,−1.3,−1.054,−1.691,−1.5305,−0.923,down
B3,1.146,1.212,1.255,1.1065,1.011,up
B4,−1.314,−1.309,−0.055,−1.4695,−2.424,down
B5,1.311,1.296,1.342,1.2215,1.383,up
B6,−1.826,−1.924,−0.747,−1.8235,−2.598,down
B7,−1.48,−1.364,−2.41,−1.7785,−0.366,down
B8,1.178,1.177,0.671,1.2695,1.559,up
B9,−2.027,−1.311,−2.229,−2.6175,−1.952,down
B10,1.307,1.602,1.092,1.0235,1.511,up
